The test system of one data set is C57BL6/J mice. The conditions noted are these: mouse, in vivo.
Another data set deals with C57BL/6J mice. The note with it: mouse, in vivo, sc.

Data on two molecules can be found in patent US20240181013A1, “POEGMA COPOLYMER CONJUGATES AND METHODS OF TREATING DISEASES” (Duke University, priority 2021, published 2024).

Description for C57BL/6J mice: (§1) Immunogenicity. Immunogenicity of POEGMA was tested and compared to that of PEG in three sets of immunogenicity experiments. […] In the second set of experiments, mice were injected with OVA (Invivogen), OVA-PEG10K, and OVA-POEGMA10K at 9.6 nmol kg^−1. In the final set, OVA, OVA-PEG10K, and OVA-POEGMA10K were emulsified in an equal volume of sterile and endotoxin-free adjuvant (Invivogen) and then administrated into 7-week-old C57BL/6J mice (n=10) at 9.6 nmol kg^−1. Complete Freund's adjuvant (CFA) was used for the first injection, while incomplete Freund's adjuvant (IFA) was the adjuvant of choice for the rest of the injections. In all experimental sets, an equal injection volume of PBS (or PBS emulsified in CFA or IFA) was used as a negative control. All drugs were administrated into mice every 17 days three times (Day 0, 17, and 34). […]
(§2) Analysis of anti-drug antibodies (ADA), ADAs were analyzed using a Luminex multiplex immunoassay (LMI) according to the manufacturer's instructions with minor modifications. […]
(§3) In a typical LMI assay, 50 μl of the diluted plasma samples (n=3) were transferred to a black, round-bottom 96-well-plate (Corning). […] Finally, magnetic beads were suspended in 100 μl of assay buffer, followed by measuring mean fluorescence signal intensity (MFI) using MAGPIX (Luminex) instrument. […]
Description for C57BL6/J mice: as §1, §2, §3

B1: OVA-PEG: ovalbumin conjugated to ~10 kDa PEG via activated carbonate-amine conjugation (conjugate, UniProt P01012 2-386, looked up)
Ovalbumin: GSIGAASMEFCFDVFKELKVHHANENIFYCPIAIMSALAMVYLGAKDSTRTQINKVVRFDKLPGFGDSIEAQCGTSVNVHSSLRDILNQITKPNDVYSFSLASRLYAEERYPILPEYLQCVKELYRGGLEPINFQTAADQARELINSWVESQTNGIIRNVLQPSSVDSQTAMVLVNAIVFKGLWEKAFKDEDTQAMPFRVTEQESKPVQMMYQIGLFRVASMASEKMKILELPFASGTMSMLVLLPDEVSGLEQLESIINFEKLTEWTSSNVMEERKIKVYLPRMKMEEKYNLTSVLMAMGITDVFSSSANLSGISSAESLKISQAVHAAHAEINEAGREVVGSAEAGVDAASVSEEFRADHPFLFCIKHIATNAVLFFGRCVSP
modifications: 10 kDa PEG conjugate
B1: the “PEG-specific IgM titer, higher than with exendin-PEG” value with C57BL6/J mice is recorded as about 60 fold.

B2: OVA-POEGMA: ovalbumin conjugated to ~10 kDa EG3 POEGMA via activated carbonate-amine conjugation (conjugate, UniProt P01012 2-386, looked up)
Ovalbumin: B1 Ovalbumin
modifications: 10 kDa EG3 POEGMA conjugate
As to B2, in the data set on C57BL/6J mice, the “anti-POEGMA response with Freund's adjuvant” value is reported as “only a weak IgM response disappearing after the first injection”.
